Results: US20200317817A1 (XOMA US, published 2020)

Columns and labels:
[1] = molecular target: T1, human PTH1R overexpressed on Saos-2 cells (human, UniProt Q03431 27-593); assay: flow cytometry on Saos-2 cells overexpressing human PTH1R, antibody alone, PE anti-human IgG
T1 construct: whole, on cells; also called Saos-2 human PTH1R cells
T1 sequence (looked up): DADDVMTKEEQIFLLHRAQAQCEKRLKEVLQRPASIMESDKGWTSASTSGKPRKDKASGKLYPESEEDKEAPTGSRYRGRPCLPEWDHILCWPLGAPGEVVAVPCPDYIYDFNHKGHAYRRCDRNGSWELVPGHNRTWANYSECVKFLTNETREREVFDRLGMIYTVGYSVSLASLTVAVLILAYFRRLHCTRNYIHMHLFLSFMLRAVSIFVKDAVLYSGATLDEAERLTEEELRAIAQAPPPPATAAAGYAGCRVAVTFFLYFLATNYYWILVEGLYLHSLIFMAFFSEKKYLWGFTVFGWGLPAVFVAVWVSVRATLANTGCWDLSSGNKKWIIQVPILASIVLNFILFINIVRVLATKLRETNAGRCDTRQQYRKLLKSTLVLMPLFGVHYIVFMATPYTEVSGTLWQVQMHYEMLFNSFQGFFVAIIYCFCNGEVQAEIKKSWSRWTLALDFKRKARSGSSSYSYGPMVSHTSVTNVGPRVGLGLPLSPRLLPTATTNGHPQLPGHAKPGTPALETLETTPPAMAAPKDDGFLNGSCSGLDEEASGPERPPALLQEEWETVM

[2] = molecular target: T2, mouse PTH1R overexpressed on CHO cells (mouse, UniProt P41593 27-591); assay: cell-based or functional assay
T2 sequence (looked up): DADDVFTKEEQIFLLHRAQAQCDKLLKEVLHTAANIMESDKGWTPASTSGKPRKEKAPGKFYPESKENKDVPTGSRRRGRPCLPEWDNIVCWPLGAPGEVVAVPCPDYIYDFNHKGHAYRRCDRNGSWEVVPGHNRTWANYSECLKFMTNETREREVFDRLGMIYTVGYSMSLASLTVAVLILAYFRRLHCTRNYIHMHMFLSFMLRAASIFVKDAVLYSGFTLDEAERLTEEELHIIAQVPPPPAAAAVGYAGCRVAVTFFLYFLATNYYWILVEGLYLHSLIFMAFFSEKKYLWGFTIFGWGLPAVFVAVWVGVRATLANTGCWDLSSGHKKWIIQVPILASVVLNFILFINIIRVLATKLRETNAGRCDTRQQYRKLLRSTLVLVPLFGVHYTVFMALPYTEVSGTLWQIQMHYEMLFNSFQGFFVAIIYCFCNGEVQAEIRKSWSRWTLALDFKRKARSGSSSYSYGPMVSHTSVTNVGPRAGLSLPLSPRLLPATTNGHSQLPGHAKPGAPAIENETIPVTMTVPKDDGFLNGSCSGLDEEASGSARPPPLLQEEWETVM

[3] = molecular target: T3, human PTH1R overexpressed on CHO cells (human, UniProt Q03431 27-593); assay: cell-based or functional assay
T3 sequence (looked up): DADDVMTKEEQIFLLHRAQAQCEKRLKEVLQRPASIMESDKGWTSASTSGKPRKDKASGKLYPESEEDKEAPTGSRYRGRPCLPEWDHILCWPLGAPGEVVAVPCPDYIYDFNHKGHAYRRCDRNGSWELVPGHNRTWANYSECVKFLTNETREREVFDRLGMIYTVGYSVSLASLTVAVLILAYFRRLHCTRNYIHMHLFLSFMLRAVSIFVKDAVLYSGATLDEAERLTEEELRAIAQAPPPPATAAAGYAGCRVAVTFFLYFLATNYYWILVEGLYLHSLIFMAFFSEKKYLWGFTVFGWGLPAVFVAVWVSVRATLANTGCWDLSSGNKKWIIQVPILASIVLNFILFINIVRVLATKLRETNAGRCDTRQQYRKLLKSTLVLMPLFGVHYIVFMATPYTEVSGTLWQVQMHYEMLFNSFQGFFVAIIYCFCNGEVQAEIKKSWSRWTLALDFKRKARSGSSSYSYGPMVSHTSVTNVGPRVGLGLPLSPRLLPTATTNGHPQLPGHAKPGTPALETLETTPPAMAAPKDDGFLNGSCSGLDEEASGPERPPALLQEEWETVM

[4] = molecular target: T4, human PTH2R overexpressed on CHO cells (human, UniProt P49190 25-550); assay: flow cytometry on CHO cells overexpressing human PTH2R, 1 hr at 4 C, APC anti-human IgG
T4 construct: whole, on cells; also called CHO human PTH2R
Experimental: Increasing concentrations of anti-PTH1R antibodies were added to CHO cells overexpressing human PTH2R and incubated for 1 hr at 4° C. (FIG. 8). Cells were washed twice with FACS Buffer and antibody binding was detected with anti-human IgG APC. […] Anti-KLH.G2 was used a negative control for binding.
PTH2R has a 51% homology to PTH1R. […] Following two washes, cells were incubated with Allophycocyanin (APC) AffiniPure F(ab′)₂ Fragment Goat Anti-Human IgG (H+L) (Jackson ImmunoResearch, West Grove, Pa.) for 20 minutes at 4° C. Cells were washed twice and resuspended in FACS Buffer. Samples were acquired using BD Cytometer (BD Biosciences, San Jose, Calif.) and data were analyzed using FlowJo (FlowJo, LLC, Ashland, Oreg.) and Prism (GraphPad Software, La Jolla, Calif.). […] Anti-KLH.G2 was used a negative control for binding.

[5] = molecular target: T5, human PTH1R on Saos-2 cells (endogenous) (human, UniProt Q03431 27-593); assay: cell-based or functional assay
T5 sequence (looked up): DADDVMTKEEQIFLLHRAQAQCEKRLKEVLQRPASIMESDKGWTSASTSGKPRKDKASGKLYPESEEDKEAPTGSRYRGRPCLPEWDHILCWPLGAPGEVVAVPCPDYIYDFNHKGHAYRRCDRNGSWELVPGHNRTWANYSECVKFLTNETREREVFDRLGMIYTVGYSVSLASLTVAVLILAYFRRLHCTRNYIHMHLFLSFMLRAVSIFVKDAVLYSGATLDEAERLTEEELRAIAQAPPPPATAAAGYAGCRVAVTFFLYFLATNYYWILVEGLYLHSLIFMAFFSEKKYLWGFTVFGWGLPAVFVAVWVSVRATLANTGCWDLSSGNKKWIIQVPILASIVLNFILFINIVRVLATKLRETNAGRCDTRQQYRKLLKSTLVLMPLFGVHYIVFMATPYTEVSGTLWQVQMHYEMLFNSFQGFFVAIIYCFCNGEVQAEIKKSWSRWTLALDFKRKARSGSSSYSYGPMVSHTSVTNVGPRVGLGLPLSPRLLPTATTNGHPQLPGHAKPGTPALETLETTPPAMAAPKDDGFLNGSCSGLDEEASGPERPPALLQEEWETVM

[6] = molecular target: T6, rat PTH1R on UMR106 cells (rat, UniProt P25961 27-591); assay: cell-based or functional assay
T6 sequence (looked up): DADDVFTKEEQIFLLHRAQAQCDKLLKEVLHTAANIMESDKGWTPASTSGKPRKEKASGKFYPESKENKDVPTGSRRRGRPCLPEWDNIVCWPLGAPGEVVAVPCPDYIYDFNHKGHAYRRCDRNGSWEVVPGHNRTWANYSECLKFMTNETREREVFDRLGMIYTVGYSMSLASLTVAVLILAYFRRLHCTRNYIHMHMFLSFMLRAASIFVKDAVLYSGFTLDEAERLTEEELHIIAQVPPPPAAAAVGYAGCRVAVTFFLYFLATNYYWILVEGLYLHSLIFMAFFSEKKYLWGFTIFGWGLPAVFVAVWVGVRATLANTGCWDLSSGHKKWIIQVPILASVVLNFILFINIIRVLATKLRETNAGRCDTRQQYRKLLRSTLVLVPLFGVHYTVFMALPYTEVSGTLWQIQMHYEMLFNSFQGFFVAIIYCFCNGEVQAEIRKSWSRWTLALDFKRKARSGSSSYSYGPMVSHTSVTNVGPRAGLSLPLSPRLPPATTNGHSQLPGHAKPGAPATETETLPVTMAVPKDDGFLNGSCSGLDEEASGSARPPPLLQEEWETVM

T4 sequence (P49190 25-550): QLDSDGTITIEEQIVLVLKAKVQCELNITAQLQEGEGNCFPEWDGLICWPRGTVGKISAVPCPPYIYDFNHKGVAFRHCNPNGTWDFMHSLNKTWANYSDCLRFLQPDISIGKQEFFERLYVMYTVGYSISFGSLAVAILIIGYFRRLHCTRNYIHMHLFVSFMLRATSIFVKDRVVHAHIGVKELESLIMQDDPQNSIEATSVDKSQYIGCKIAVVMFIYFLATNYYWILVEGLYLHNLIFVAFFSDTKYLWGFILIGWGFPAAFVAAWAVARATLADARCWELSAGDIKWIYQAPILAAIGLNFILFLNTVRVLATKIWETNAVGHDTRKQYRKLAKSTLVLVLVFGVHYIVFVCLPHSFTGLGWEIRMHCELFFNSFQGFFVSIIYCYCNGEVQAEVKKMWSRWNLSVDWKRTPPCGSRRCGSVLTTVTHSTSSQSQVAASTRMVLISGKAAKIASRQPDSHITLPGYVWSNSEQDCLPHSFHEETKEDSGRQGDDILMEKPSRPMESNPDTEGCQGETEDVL

B1: XPA.85.329 (antibody, V domains shown)
VH: QMQLVQSGAEVKKPGSSVKVSCKASGGTFSSYAISWVRQAPGQGLEWMGGIIPIFGTANYAQKFQGRVTITADESTSTAYMELSSLRSEDTAVYYCARGYVVARLWGQGTLVTVSS
VL: DIVMTQTPLSLSVTPGQPASISCKSSQSLLHIDGLTYLYWYLQKPGQPPQLLIYEVSHRFSGVSDKFSGSGSGTDFTLTISRVEAEDVGVYYCMQSLHLPITFGQGTRLEIK
notes: IgG; also called Ab329; XPA.329
**Q.** With B1 as the binder, how does the EC50 [1] read?
**A.** 7.61 nM

**Q.** And the “IC50, inhibition of PTHrP(1-34)-induced cAMP accumulation” value [2]?
**A.** 2.66 nM

**Q.** And the “IC50, inhibition of PTH(1-34)-induced cAMP accumulation” value [3]?
**A.** 16.6 nM

**Q.** And the “IC50, inhibition of PTHrP(1-34)-induced cAMP accumulation” value [3]?
**A.** 6.54 nM

**Q.** Does B1 bind [4]?
**A.** no binding (tested: about 160 nM)

**Q.** What about the “% inhibition of cAMP accumulation at 1 µM PTH(1-34), 267 nM IgG” value [5] of the same binder?
**A.** 79%

**Q.** What about the “% inhibition of cAMP accumulation at 1 µM PTHrP(1-34), 267 nM IgG” value [5] of the same binder?
**A.** 90%

**Q.** And the “% inhibition of cAMP accumulation at 1 µM PTH(1-34), 267 nM IgG” value [6]?
**A.** 50%

**Q.** What about the “% inhibition of cAMP accumulation at 1 µM PTHrP(1-34), 267 nM IgG” value [6] of the same binder?
**A.** 41%
